Test results as given in patent publication US20240376170A1 (BRIGHT PEAK THERAPEUTICS, published 2024).
Read-outs that look alike come from different tables or passages of the source. Bridges are numbered along the chain shown (N, C = ends). Primed or numbered codes have the meaning given here. [ ]: non-standard residue; d: D form. Ygp(4) = Tyr with amino-capped PEG8 (O-(8x polyethylene glycol-amino)-tyrosine); Yn3(4) = Tyr with azide-capped PEG9 (O-(9x polyethylene glycol-azido)-tyrosine); Ygp = O-(8x polyethylene glycol-amino)-tyrosine (Tyr, amino-capped PEG8); Yn3 = O-(9x polyethylene glycol-azido)-tyrosine (Tyr, azide-capped PEG9); cleavable peptide‑PEG9‑glutaryl = not defined here; Ygp″ = O-(8x polyethylene glycol-amino)-tyrosine; Yn3″ = O-(9x polyethylene glycol-azido)-tyrosine; PEG4′ = 4x polyethylene glycol; PEG9′ = 9x polyethylene glycol; hSer = N[C@@H](CCO)C(=O)O; Nle = CCCC[C@H](N)C(=O)O

T1: IL-2 receptor βγ complex (human, UniProt P14784 27-551; P31785 23-369)
T1 sequence (looked up) 1: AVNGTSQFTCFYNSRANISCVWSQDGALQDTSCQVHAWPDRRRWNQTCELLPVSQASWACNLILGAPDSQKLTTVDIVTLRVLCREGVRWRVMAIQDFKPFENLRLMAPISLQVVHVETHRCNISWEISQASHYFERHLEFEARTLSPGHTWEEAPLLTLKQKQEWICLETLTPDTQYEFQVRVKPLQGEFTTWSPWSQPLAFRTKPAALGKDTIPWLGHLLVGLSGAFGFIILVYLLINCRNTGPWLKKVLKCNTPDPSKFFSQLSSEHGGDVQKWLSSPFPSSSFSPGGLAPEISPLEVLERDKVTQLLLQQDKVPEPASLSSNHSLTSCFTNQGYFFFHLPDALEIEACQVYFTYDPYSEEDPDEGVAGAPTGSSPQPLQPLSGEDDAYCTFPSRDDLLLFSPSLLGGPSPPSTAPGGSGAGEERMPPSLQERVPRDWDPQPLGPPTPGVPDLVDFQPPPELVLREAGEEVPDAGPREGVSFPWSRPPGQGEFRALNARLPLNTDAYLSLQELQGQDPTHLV
T1 sequence (looked up) 2: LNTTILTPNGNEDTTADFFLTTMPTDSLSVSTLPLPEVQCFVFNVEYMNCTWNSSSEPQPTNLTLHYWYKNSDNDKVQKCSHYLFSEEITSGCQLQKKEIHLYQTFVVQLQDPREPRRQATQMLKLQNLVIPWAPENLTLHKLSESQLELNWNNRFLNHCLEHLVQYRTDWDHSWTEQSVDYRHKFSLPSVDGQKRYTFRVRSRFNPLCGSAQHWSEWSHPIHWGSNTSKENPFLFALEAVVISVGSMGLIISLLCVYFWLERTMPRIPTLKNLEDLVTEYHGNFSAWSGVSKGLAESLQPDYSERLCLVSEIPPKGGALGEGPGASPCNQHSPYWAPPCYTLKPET


Experiments:
Assay in all cases: cell-based or functional assay
IL-2 receptor βγ complex [1] = biological target: T1, IL-2 receptor βγ complex
IL-2 receptor βγ complex [2] = biological target: T1, IL-2 receptor βγ complex; remark: listed apart in the source
IL-2 receptor βγ complex [3] = biological target: T1, IL-2 receptor βγ complex; remark: listed apart in the source

Average EC50, pSTAT5 Assay (T cells) (IL-2 receptor βγ complex [1]) | Average EC50, pSTAT5 Assay in NK cells (IL-2 receptor βγ complex [2]) | Average EC50, pSTAT5 Assay (T cells) (IL-2 receptor βγ complex [3]) | Binder
 |  | 57.4 nM | CMP-165 (ligand, bridge N-23; not fully specified (bridges); ends not checked; also: sequence of the cleavable peptide in the bridge not given here) APTSSSTKKTQLQLEHLLLDLQKILNGINNYKNPKLTR[Nle]L[hSer][Yn3]KF[Ygp][Nle]PKKATELKHLQCLEEELKPLEEVL[hSer]LAQSKNFHLRPRDLISNINVIVLELKGSETTF[hSer]CEYADETATIVEFLNRWITFSQSIISTLT
 |  | 53.4 nM | CMP-169 (ligand, bridge 9-23; not fully specified (bridges); ends not checked; also: linker peptide sequence not given here) APTSSSTKKTQLQLEHLLLDLQEILNGINNYKNPKLTR[Nle]L[hSer][Yn3(4)]KF[Ygp(4)][Nle]PKKATELKHLQCLEEELKPLEEVL[hSer]LAQSKNFHLRPRDLISNINVIVLELKGSETTF[hSer]CEYADETATIVEFLNRWITFSQSIISTLT
 |  | 1.42 nM | CMP-165, MMP2 cleaved molecule (ligand, ends and bridges not checked; also: MMP2 cleaved, cleavage site and linker fragments on N-terminus and Lys23 side chain not given here) APTSSSTKKTQLQLEHLLLDLQKILNGINNYKNPKLTR[Nle]L[hSer][Yn3]KF[Ygp][Nle]PKKATELKHLQCLEEELKPLEEVL[hSer]LAQSKNFHLRPRDLISNINVIVLELKGSETTF[hSer]CEYADETATIVEFLNRWITFSQSIISTLT
 |  | 4.36 nM | CMP-166, MMP2 cleaved molecule (ligand, ends and bridges not checked; also: MMP2 cleaved, cleavage site and linker fragments on N-terminus and Lys23 side chain not given here) APTSSSTKKTQLQLEHLLLDLQKILNGINNYKNPKLTR[Nle]L[hSer][Yn3]KF[Ygp][Nle]PKKATELKHLQCLEEELKPLEEVL[hSer]LAQSKNFHLRPRDLISNINVIVLELKGSETTF[hSer]CEYADETATIVEFLNRWITFSQSIISTLT
 |  | 5.31 nM | CMP-167, MMP2 cleaved molecule (ligand, ends and bridges not checked; also: MMP2 cleaved, cleavage site and linker fragments on N-terminus and Lys23 side chain not given here) APTSSSTKKTQLQLEHLLLDLQKILNGINNYKNPKLTR[Nle]L[hSer][Yn3]KF[Ygp][Nle]PKKATELKHLQCLEEELKPLEEVL[hSer]LAQSKNFHLRPRDLISNINVIVLELKGSETTF[hSer]CEYADETATIVEFLNRWITFSQSIISTLT
 |  | 180 nM | CMP-301 (ligand, lactam N-31; ends not checked) GPLGLAG[PEG9′]APTSSSTKKTQLQLEHLLLDLQEILNGINNYKNPKLTR[Nle]L[hSer][Yn3(4)]KF[Ygp(4)][Nle]PKKATELKHLQCLEEELKPLEEVL[hSer]LAQSKNFHLRPRDLISNINVIVLELKGSETTF[hSer]CEYADETATIVEFLNRWITFSQSIISTLT
 |  | 176 nM | CMP-167 (ligand, bridge N-23; not fully specified (bridges); ends not checked; also: sequence of the cleavable peptide in the bridge not given here) APTSSSTKKTQLQLEHLLLDLQKILNGINNYKNPKLTR[Nle]L[hSer][Yn3]KF[Ygp][Nle]PKKATELKHLQCLEEELKPLEEVL[hSer]LAQSKNFHLRPRDLISNINVIVLELKGSETTF[hSer]CEYADETATIVEFLNRWITFSQSIISTLT
 |  | 5.39 nM | CMP-169, MMP2 cleaved molecule (ligand, not fully specified; ends and bridges not checked; also: cleaved by MMP2, product not given here, Lys9 side chain linked to another sequence via PEG4, Glu23 side chain linked to another sequence) APTSSSTKKTQLQLEHLLLDLQEILNGINNYKNPKLTR[Nle]L[hSer][Yn3(4)]KF[Ygp(4)][Nle]PKKATELKHLQCLEEELKPLEEVL[hSer]LAQSKNFHLRPRDLISNINVIVLELKGSETTF[hSer]CEYADETATIVEFLNRWITFSQSIISTLT

The remaining lines, values behind:

Binder | Average EC50, pSTAT5 Assay (T cells) (IL-2 receptor βγ complex [1]) | Average EC50, pSTAT5 Assay in NK cells (IL-2 receptor βγ complex [2]) | Average EC50, pSTAT5 Assay (T cells) (IL-2 receptor βγ complex [3])
CMP-136 (ligand, bridge N-37; not fully specified (bridges); ends not checked) [PEG9′]PLGLAG[PEG9′]APTSSSTKKTQLQLEHLLLDLQ[Nle]ILNGIENYKNPKLTR[Nle]L[hSer][Yn3]KF[Ygp][Nle]PKKATELKHLQCLEEELKPLEEVL[hSer]LAQSKNFHLRPRDLISNINVIVLELKGSETTF[hSer]CEYADETATIVEFLNRWITFSQSIISTLT | 40.5 nM | 2.17 nM | 
CMP-138 (ligand, bridge (positions not given here); not fully specified (bridges); ends not checked) [PEG4′]SGGPGPAGMKGLPGS[PEG4′]APTSSSTKKTQLQLEHLLLDLQ[Nle]ILNGIENYKNPKLTR[Nle]L[hSer][Yn3]KF[Ygp][Nle]PKKATELKHLQCLEEELKPLEEVL[hSer]LAQSKNFHLRPRDLISNINVIVLELKGSETTF[hSer]CEYADETATIVEFLNRWITFSQSIISTLT | 20.1 nM | 1.88 nM | 
CMP-164, MMP2 cleaved molecule (ligand, ends and bridges not checked; also: MMP2 cleaved, cleavage site and linker fragments on N-terminus and Lys23 side chain not given here) APTSSSTKKTQLQLEHLLLDLQKILNGINNYKNPKLTR[Nle]L[hSer][Yn3]KF[Ygp][Nle]PKKATELKHLQCLEEELKPLEEVL[hSer]LAQSKNFHLRPRDLISNINVIVLELKGSETTF[hSer]CEYADETATIVEFLNRWITFSQSIISTLT |  |  | 0.61 nM
CMP-151 (ligand, linker N-23 via cleavable peptide‑PEG9‑glutaryl; reading uncertain) APTSSSTKKTQLQLEHLLLDLQKILNGINNYKNPKLTR[Nle]L[hSer][Yn3″]KF[Ygp″][Nle]PKKATELKHLQCLEEELKPLEEVL[hSer]LAQSKNFHLRPRDLISNINVIVLELKGSETTF[hSer]CEYADETATIVEFLNRWITFSQSIISTLT | 28.2 nM | 2.51 nM | 
CMP-163, MMP2 cleaved molecule (ligand, not fully specified; ends and bridges not checked) APTSSSTKKTQLQLEHLLLDLQKILNGINNYKNPKLTR[Nle]L[hSer][Yn3(4)]KF[Ygp(4)][Nle]PKKATELKHLQCLEEELKPLEEVL[hSer]LAQSKNFHLRPRDLISNINVIVLELKGSETTF[hSer]CEYADETATIVEFLNRWITFSQSIISTLT |  |  | 0.76 nM
CMP-162, MMP2 cleaved molecule (ligand, not fully specified; ends and bridges not checked; also: MMP2 cleaved, cleavage site and linker fragment on Lys23 side chain not given here) APTSSSTKKTQLQLEHLLLDLQKILNGINNYKNPKLTR[Nle]L[hSer][Yn3(4)]KF[Ygp(4)][Nle]PKKATELKHLQCLEEELKPLEEVL[hSer]LAQSKNFHLRPRDLISNINVIVLELKGSETTF[hSer]CEYADETATIVEFLNRWITFSQSIISTLT | 0.758 nM |  | 
CMP-164 (ligand, bridge N-23; not fully specified (bridges); ends not checked; also: sequence of the cleavable peptide in the bridge not given here) APTSSSTKKTQLQLEHLLLDLQKILNGINNYKNPKLTR[Nle]L[hSer][Yn3]KF[Ygp][Nle]PKKATELKHLQCLEEELKPLEEVL[hSer]LAQSKNFHLRPRDLISNINVIVLELKGSETTF[hSer]CEYADETATIVEFLNRWITFSQSIISTLT |  |  | 31.4 nM
